Data set [1] relates to HeLa Kyoto. Kind of data set: solubility in G1/S (NP-40 vs SDS abundance) (log2 ratio); higher = more soluble. Conditions: cell cycle stage: G1/S.
For data set [2], the system named is HeLa Kyoto. Kind of data set: melting temperature (median over replicates), in situ; higher = more thermally stable.
In data set [3] the test system is HeLa Kyoto. As to the kind of experiment: solubility change mitosis vs G1/S (difference of NP-40 vs SDS log2 ratios) (log2 ratio difference); higher = more soluble in mitosis.
For data set [4], the system named is HeLa Kyoto. As to the kind of experiment: thermal stability score vs G1/S (z-score of summed log2 fold changes over temperatures); higher = more thermally stable than in G1/S.
The mark [5] stands for this setting: cell cycle stage: early G1 (4.5 h after nocodazole release).

We go through four sequences from the supplement of paper PMC5998384.
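Throughout, for melting temperature (median over replicates), in situ: HeLa Kyoto cells synchronized by double thymidine or nocodazole block, proteins quantified by TMT10plex mass spectrometry, three independent biological replicates.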
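Throughout, for solubility change mitosis vs G1/S (difference of NP-40 vs SDS log2 ratios): synchronized HeLa Kyoto cells (double thymidine block for G1/S, nocodazole release for mitosis), protein amounts in NP-40 versus SDS lysates quantified by mass spectrometry, three biological replicates.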
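Throughout, for solubility in G1/S (NP-40 vs SDS abundance): HeLa Kyoto cells arrested at G1/S by double thymidine block, proteins quantified by TMT10plex mass spectrometry in mild NP-40 versus SDS extracts, three biological replicates.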
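Throughout, for thermal stability score vs G1/S (z-score of summed log2 fold changes over temperatures): synchronized HeLa Kyoto cells, proteins quantified by TMT10plex mass spectrometry, three biological replicates, mitosis taken 0.5 h after nocodazole release, G1/S directly after double thymidine block.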

Regarding “MCASVKYNIRGPALIPRMKTKHRIYYITLFSIVLLGLIATGMFQFWPHSIESSNDWNVEKRSIRDVPVVRLPADSPIPERGDLSCRMHTCFDVYRCGFNPKNKIKVYIYALKKYVDDFGVSVSNTISREYNELLMAISDSDYYTDDINRACLFVPSIDVLNQNTLRIKETAQAMAQLSRWDRGTNHLLFNMLPGGPPDYNTALDVPRDRALLAGGGFSTWTYRQGYDVSIPVYSPLSAEVDLPEKGPGPRQYFLLSSQVGLHPEYREDLEALQVKHGESVLVLDKCTNLSEGVLSVRKRCHKHQVFDYPQVLQEATFCVVLRGARLGQAVLSDVLQAGCVPVVIADSYILPFSEVLDWKRASVVVPEEKMSDVYSILQSIPQRQIEEMQRQARWFWEAYFQSIKAIALATLQIINDRIYPYAAISYEEWNDPPAVKWGSVSNPLFLPLIPPQSQGFTAIVLTYDRVESLFRVITEVSKVPSLSKLLVVWNNQNKNPPEDSLWPKIRVPLKVVRTAENKLSNRFFPYDEIETEAVLAIDDDIIMLTSDELQFGYEVWREFPDRLVGYPGRLHLWDHEMNKWKYESEWTNEVSMVLTGAAFYHKYFNYLYTYKMPGDIKNWVDAHMNCEDIAMNFLVANVTGKAVIKVTPRKKFKCPECTAIDGLSLDQTHMVERSECINKFASVFGTMPLKVVEHRADPVLYKDDFPEKLKSFPNIGSL [EXT2]”, in the data set with HeLa Kyoto [1], the “solubility in G1/S (log2)” value is -0.537. Further, the melting temperature is 54 °C in the data set on HeLa Kyoto [2] (cell cycle stage: G1/S) and 53.4 °C in the data set with HeLa Kyoto [2] (cell cycle stage: mitosis). Moreover, in the data set with HeLa Kyoto [3], the “solubility change mitosis (log2)” value was 0.0664. In addition, the results for the thermal stability score with HeLa Kyoto [4] (setting [5]) and with HeLa Kyoto [4] (cell cycle stage: mitosis) were -1.61 and -1.33, respectively.
Consider “MDPTAGSKKEPGGGAATEEGVNRIAVPKPPSIEEFSIVKPISRGAFGKVYLGQKGGKLYAVKVVKKADMINKNMTHQVQAERDALALSKSPFIVHLYYSLQSANNVYLVMEYLIGGDVKSLLHIYGYFDEEMAVKYISEVALALDYLHRHGIIHRDLKPDNMLISNEGHIKLTDFGLSKVTLNRDINMMDILTTPSMAKPRQDYSRTPGQVLSLISSLGFNTPIAEKNQDPANILSACLSETSQLSQGLVCPMSVDQKDTTPYSSKLLKSCLETVASNPGMPVKCLTSNLLQSRKRLATSSASSQSHTFISSVESECHSSPKWEKDCQESDEALGPTMMSWNAVEKLCAKSANAIETKGFNKKDLELALSPIHNSSALPTTGRSCVNLAKKCFSGEVSWEAVELDVNNINMDTDTSQLGFHQSNQWAVDSGGISEEHLGKRSLKRNFELVDSSPCKKIIQNKKTCVEYKHNEMTNCYTNQNTGLTVEVQDLKLSVHKSQQNDCANKENIVNSFTDKQQTPEKLPIPMIAKNLMCELDEDCEKNSKRDYLSSSFLCSDDDRASKNISMNSDSSFPGISIMESPLESQPLDSDRSIKESSFEESNIEDPLIVTPDCQEKTSPKGVENPAVQESNQKMLGPPLEVLKTLASKRNAVAFRSFNSHINASNNSEPSRMNMTSLDAMDISCAYSGSYPMAITPTQKRRSCMPHQQTPNQIKSGTPYRTPKSVRRGVAPVDDGRILGTPDYLAPELLLGRAHGPAVDWWALGVCLFEFLTGIPPFNDETPQQVFQNILKRDIPWPEGEEKLSDNAQSAVEILLTIDDTKRAGMKELKRHPLFSDVDWENLQHQTMPFIPQPDDETDTSYFEARNTAQHLTVSGFSL [MASTL]”, for which the “solubility in G1/S (log2)” value in the data set with HeLa Kyoto [1] came out at 0.0696. Besides, the results for the melting temperature with HeLa Kyoto [2] (cell cycle stage: G1/S) and in the data set on HeLa Kyoto [2] (cell cycle stage: mitosis) were 48.4 °C and 50.5 °C, respectively. In addition, the “solubility change mitosis (log2)” value in the data set on HeLa Kyoto [3] was -0.0152. Moreover, the thermal stability score in the data set with HeLa Kyoto [4] (setting [5]) stood at 2.99; with HeLa Kyoto [4] (cell cycle stage: mitosis), 5.64.
Turning to “MASLLAKDAYLQSLAKKICSHSAPEQQARTRAGKTQGSETAGPPKKKRKKTQKKFRKREEKAAEHKAKSLGEKSPAASGARRPEAAKEEAAWASSSAGNPADGLATEPESVFALDVLRQRLHEKIQEARGQGSAKELSPAALEKRRRRKQERDRKKRKRKELRAKEKARKAEEATEAQEVVEATPEGACTEPREPPGLIFNKVEVSEDEPASKAQRRKEKRQRVKGNLTPLTGRNYRQLLERLQARQSRLDELRGQDEGKAQELEAKMKWTNLLYKAEGVKIRDDERLLQEALKRKEKRRAQRQRRWEKRTAGVVEKMQQRQDRRRQNLRRKKAARAERRLLRARKKGRILPQDLERAGLV [SURF6]”, the “solubility in G1/S (log2)” value in the data set with HeLa Kyoto [1] was -1.46. Besides, the melting temperature in the data set on HeLa Kyoto [2] (cell cycle stage: G1/S) is 56.5 °C; with HeLa Kyoto [2] (cell cycle stage: mitosis) it was 54.5 °C. In addition, the “solubility change mitosis (log2)” value in the data set with HeLa Kyoto [3] was 1.25. In addition, the thermal stability score was -2.48 with HeLa Kyoto [4] (setting [5]) and -6.87 in the data set on HeLa Kyoto [4] (cell cycle stage: mitosis).
“MSEHVEPAAPGPGPNGGGGGPAPARGPRTPNLNPNPLINVRDRLFHALFFKMAVTYSRLFPPAFRRLFEFFVLLKALFVLFVLAYIHIVFSRSPINCLEHVRDKWPREGILRVEVRHNSSRAPVFLQFCDSGGRGSFPGLAVEPGSNLDMEDEEEEELTMEMFGNSSIKFELDIEPKVFKPPSSTEALNDSQEFPFPETPTKVWPQDEYIVEYSLEYGFLRLSQATRQRLSIPVMVVTLDPTRDQCFGDRFSRLLLDEFLGYDDILMSSVKGLAENEENKGFLRNVVSGEHYRFVSMWMARTSYLAAFAIMVIFTLSVSMLLRYSHHQIFVFIVDLLQMLEMNMAIAFPAAPLLTVILALVGMEAIMSEFFNDTTTAFYIILIVWLADQYDAICCHTSTSKRHWLRFFYLYHFAFYAYHYRFNGQYSSLALVTSWLFIQHSMIYFFHHYELPAILQQVRIQEMLLQAPPLGPGTPTALPDDMNNNSGAPATAPDSAGQPPALGPVSPGASGSPGPVAAAPSSLVAAAASVAAAAGGDLGWMAETAAIITDASFLSGLSASLLERRPASPLGPAGGLPHAPQDSVPPSDSAASDTTPLGAAVGGPSPASMAPTEAPSEVGS [TMEM259]”: the “solubility in G1/S (log2)” value with HeLa Kyoto [1] was -0.252. Besides, the melting temperature amounted to 54.7 °C in the data set on HeLa Kyoto [2] (cell cycle stage: G1/S) and 54.2 °C in the data set on HeLa Kyoto [2] (cell cycle stage: mitosis). Besides, in the data set on HeLa Kyoto [3], the “solubility change mitosis (log2)” value is -0.025. Moreover, the thermal stability score with HeLa Kyoto [4] (setting [5]) turned out to be 0.29; with HeLa Kyoto [4] (cell cycle stage: mitosis) it was 0.308.
